Test results: a protein production outcome set (Wang et al. 2014)

Test: label from the status in PepcDB records

Sequence | protein production
MTSLNRPPFDFKTQYSLGFNAQDDEIVVDFFCGGGGAGTGLEMGLGRKVSVAKNHSAAAISMHTANHPGAKHFTTDVFDGDPDTECGGKAVGWFHMSPDCTHHSQAAGGQPRKREIRNLSWIGLKWAGKKKPRVVSLENVKQILQWGPLVAKRCKSTGRVVKLGGGIAAPGEVVPVDQQFLVPDPARRGQTWAVFVAELERLGYAVEWRVVRACDFGAPTSRERLFMIARCDGQSIVWPEPTHAKRPSKGQQPLKSAAECIDFSDLGKSIFERKKDLAQATLRRVAKGM | failed
MNNTNPLVSIIVPVYKVERYIHRSIDSLLRQTYNNLEIILVDDGSPDNCPFICDKYAMQDNRIRVIHKSNGGLSDARNAALNVMTGQYVTFVDSDDYIADNMIEKFIETVKLYQCNMVVAGMNIIDKNNQIYDYRRTLTSTLSTGIDITRKLLKDVFPFNFVCAKIFESSLFEEIRFPVGRHYEDTATTYKLTHKCERIYCIADCLYFYELEREGNITSELNTSKAIKSYIDGCLNSREQIFFCQKHKDFSDLLPVLTKRLQLWALLAIQSAISLGYKEYMFYYHQIRIYIRSLSYTQRMTHLQIALTFPIIYYSLYPLLSRLKKMYKN | failed
MKSADGLLHVAFTPSKATGKVLASELPEKVGKRSSVLYPASLKAGNDIGVPVQSVDTVLLQQALSAPVLSVASPSAVRAWLHLIQNEEQWSNYVACIGETTASAARRLGLKNVYYPEKPGLEGWVESIMEALGAHADSSNPSSRN | failed
MASESSIDEKKKKAQVTQSNINKNTPQQLTDKDLFGNETTLAVSEEDIQAALDGDEFRVPLNSPVILVQSGNRAPETIMQEEMRKYYTVSTFSGIPDRQKPLTCNKNKDKNENEDVASAENMNWMQALRFVAAKGHQKAIIVYQDMLQTGKYDSALKSTVWSDYKNDKLTDAISLRYLVRFTLVDVATGEWATWSPVNYEYKVLPPLPDKNEASTTDMTEQQIMQLKQKTYKAMVKDLVNRYQLEHHHHHH | failed
MSVVPVADVLQGRVAVDQEVTVRGWVRTRRDSKAGISFLAVYDGSCFDPVQAVINNSLPNYNEEVLHLTTGCSVVVTGKVVASPGQGQSFEIQATKVEVAGWVEDPDTYPMAAKRHSIEYLREVAHLRPRTNLIGAVARVRHTLAQALHRFFDEQGFFWVSTPLITASDTEGAGEMFRVSTLDLENLPRNDQGRVDFDKDFFGKESFLTVSGQLNGETYACALSKIYTFGPTFRAENSNTSRHLAEFWMLEPEVAFADLEDNARLAEAMLKYVFNAVLEERADDMKFFAERVDKDAIARLERFVSTDFAQVDYTDAVAILERCGKTFENPVFWGVDLSSEHERYLAEEHFKAPVVVKNYPKEIKAFYMRLNEDGKTVAAMDVLAPGIGEIIGGSQREERLDVLDARMAEMGLNKEDYWWYRDLRRYGTVPHSGFGLGFERLIAYVTGVQNVRDVIPFPRTPRNASF | failed
MALELSRLPELLSRIDGYKGQPVTRLAVMLNLLVFIRSSELRYARWSEIDIDNSMWTIPAEREPLPGVKFSHRGSKMRTPHLVPLSKQVVAILAELQTWAGENGLIFTGAHDPRKPISENTVNKALRVMGYDTTQEVCGHGFRAMACSALIESGLWSRDAVERQMSHQERNGVRAAYIHKAEHLEERRLMLQWWADFLDANREKGISPFEYAKINNPLKLEHHHHHH | not failed
MASMTGGQQMGRGSEEPNPNDGYDYMQHGFDWPGLQEGGTTKYPACSGSNQSPIDINTNQLMEPSSRSGTSAVSLNGLNVDGAQADGITLTNAKVDLEQGMKVTFDQPAANLPTIEIGGTTKSFVPIQFHFHHFLSEHTINGIHYPLELHIVMQEQDPADVATAQLAVIGIMYKYSENGDAFLNSLQTQIEGKIGDGTASYGDTGVSIDNINVKTQLLPSSLKYAGYDGSLTTPGCDERVKWHVFTTPREVTREQMKLFVDVTMGAHAGADVVNNRMIQDLGDREVYKYNY | not failed
MQNNKTKLLDEVATYYAEKLAEHGDTPRGVDWNGEESQTIRFEQLCKVIDPKKMPGFSLNDLGCGYGALLDYLRDKYAACIYLGVDVSHEMIKAARQRHTAANQARFITSTEPDQVADYGVASGIFNVRLERTDAEWFDYLLGTLDVLNRTSSLGFAFNCLTSYSDEDKKRDYLYYADPCRLFDLCKRRYSRQVALLHDYGLYEFTILIRKALEHHHHHH | failed
MPLPSLKDQFGALIAASSVSCTQPELDQTNRPVVDLLASWLGDLGFRCEIREVSPGKFNLLASYGSGPGGLVLAGHTDTVPYDEALWSSDPLRLDERDGRWYGLGSCDMKGFFPLAIEALLPLLDQPFRQPLMILATCDEESSMAGARALAESGRPLGRATVIGEPTNLRPIRLHKGVMMERIEILGQSGHSSDPNLGRSALEAMHATIGELMALRGEWQRAWNNPQFSVPQPTLNFGCIHGGDNPNRICGQCSLEFDLRPLPGMQPKQLREAIRQRLRPLAERHQVSIDYQPLFPAVPPFEQAQDSELVRVAERLTGHRAEAVAFGTEAPYFQRLGSETLVLGAGDIACAHQPDEHLELARIEPMVGVLRRLIQHYCLTPAAD | failed
MKIIIVGGGVTGSELARRLIRKKHDVVLIERDEETARHAANRLDCMVVQAAGNDTQILLDAGIKKAEAMIAVTDSDELNMIICGIADSLAPQVIKIARVRNEDYVKALNFSEERTLGINALVYPDEEAALAVIQAIEHGAVSDILSFENSSYELSRFNVCEKSTLDGLAVFDIRKYVDIPFIVVSVEQNGKNRIPSGDTILTAGTRVSILTKPEHIKRFYELSGFETQEFKKIALVGMGRIGKSIAEYLLKNSKGKSFLSKLLPINLNQKWKISIIETNDKKAKEVAAEFPEASIYKADVTDESFVDEIGLDSFDLVICTTPNYEFNMIACAYLKTLGVYKTISLVQSAVLENVAYKIGVDVAVSFKDVVVDSIMSHLVSENVTSVHTMGDGKLEIIELQVSEKSPVLGQKLKDISQHGVYLVLLVTDENGEQIPTGDTEVKAGYKIVFIVKSSRSDEIIKIFGGN | failed
TFGEKLLNAASTRGRLCVGIDPHESLLTSWGLPVNVDGLAEFSRACVEAFADTVALVKPQVAFYERFGSAGFAILEETIQTLRERGCLVVSDAKRGDIGSTMAGYASAWLDPASPLSSDAVTVSPYLGFHSLDPVFELAEQHGRGVFVLAATSNPEARELQDQQNADGVSISQQIVDQAAALNAPYMAQGKAGNIGVVIGATLSKPPRLSTLGGAILMPGVGAQGGTASDVDEIAGDMAHLAFPNVSRSILATGPDIAEMKNSVAKNAADFPGFP | not failed
MTKSKIIEIGPLVPAFEEEKIVILFGPTATNELREISVIHEFEAAPQSALSKGNTLQIGDQVYIIEEVGTEANKNLEELGHISIYFRSGQNEVLPGAIVVSPEVFPTLAIGDTIQF | failed
MPGESNIIEWPASRVRVISGASWSRNGQILSGRCKANNGTWFGITKGGRVAFLVNTSLLLDRVKSYSGSELYPVRFLEGNMSPEQFANEVKVHEKETNERHAYSLVVADMTSSSMVHILKPSDTKSDVVIETVPFGVHTLSSYEGLDSTDSARDLLLRRLFTQMVGNLGNVQQRQMEEIAGRFMYDAQAGRDAVFYHSRDEHPNGKLGTQRFGTTSTTALVVKRTREVMLFEKYMEQNGAWNTNNFAFNIQKQQKLYPNLDKEALKRVGVFALEEVNNHEHDIHPDLMPSFFEDDMLKVKFNEMIARHAKLPPIKNIVEDLMMKSPFFIDSVDGAGKKVRYRTVRTLGMDIKANRPQGRFYERHLNDNGEWVG | failed
AIARGHGTYMDEDRLTASVAGQVERVNKLICVKPLKTRYNGEVGDVVVGRITEVQQKRWKVETNSRLDSVLLLSAVNLPGGELRRRSTQDELAMRDYLQEGDLISAEVQSIFSDGALSLHTRSLKYGKLGQGVLVYVSPSLVKRQKTHFHNLPCGASLILGNNGYVWLSPTPALQEEQAGGFYTSMEPVSLSDREVVSRLRNCLLALANQKVLLFDTSVLYCYEASLQHQIKDILKPEIMEEIVLETRQRLMEHEG | not failed
MLSKSKTTKALLYSTAALSLFAASHVHADETSHWTARSVDQIKADISVNDNQQTYTVQYGDTLGSIVEAMGIDMNVLANIKEITNIDLIFPGTVLTTTYNADNQAVSVKVETPSSETSDTPVVAESNLTTNEVTVNGQSVVASDLSAPVETVSLTATQAPAKEESTQVVSEVTEAIASASDTPAYADTEQPVADAIDHVTSSAEETLAEEEAPATETSAQAETTEVAATSEAASEAASEVPAEQLAAASEAPESSEAPAEQPAAAPESSEAPAEQPAATSEAASEAPASVVPVATSEAVSEAPAVSEVPAEQLAAASEAPESSEVPAEQPAAAPESSEAPAEQPAATSEAAPATSEAPAEQLAATSEAASTPNTYPVGQCTWGAKSLAPWAGNNWGNAKDWIASAQAAGHSVGTTPVAGAIAVWPNDGGGYGHVAYVTSASGVNSIQVMESNYAGNMLIGNYRGTFDPTSSAHGGSVYYIYP | failed
MRNFFKKMVVLSVGCLTLPLWAQPHREGVQQKLQSLSVEQKIDLLCARYPGVPQEGLAKYDWWSECLHGVARAGKATVFPKPIGMGSTWDAELIHRIGIAIGDEARAKHHQDVREHGYSDRHYGLTFFSPTLNIARDPRWGRTTECFSEDPLLTSDMGVSFIKGMQGDDPYYLKTVATAKHFVANNEENRRLGGSAIVDEVSLREYYFPAFRDAVVRGYVKSIMGAYNALNGIPCCANSMLLTDVLRKEWGFEGVVISDGSAIDKLYTHHKYVPNLEEGAALALRAGCDMSLRDEYRPGLKKAYHKGLITEHDLNVAVARVLDLRARLGLDKGTDQGNPYKNTPYSVVECERHQQLALEAAEKSMILLKNEGVLPLKPDASKRKLNIALIGDAFKSVYYGDYSGMPEYNRTLLEAFTHDAGRLANLTWMGERSQEVLIPSHLLTQTADQAYDGILGFTARYYEGTKVGKEAALTRQDLTLDFKLAEDAALKQKEVRAASWTSTLKAPQSGRYMFYLEASGRGKLFINGKQMLSKYNGHRFKTSCEVVLKEGEEYKLKVDCEELNTQMPIRLTWTPPFKGTDDTPAKLAKRSDVAILFVRDDNSSEGRDRKNLNLSDAHIELIKEVCAANPKTILLLGGGSTLALKDIIEGPAALLNVWIAGQGEAQAISNILLGKTNPSGKTAVTFCADESELPALDDYDITHGRSYQYFKGKELFPFGFGLSYTNYQYGKPKMKHRKLQQGDKVEVSAEIRNTGKYAGEEVVQCYLSSPTWQKQGLKQKLVGYQRVSLKPGQAKTVKFCIQEEQLKRWNKDKDEWGLNGNQYNLSVVPCSNQQNAVSFTYR | failed
MRAYQIMSRQVVSIRPEAPITDAIKVMLAHHISGLPVVDSADNLVGIICESDFLRRSEIGTEHERNRLLSLLLGAERVASEFVKERGRKVEQVMTRQPVTTNEQAPLDEVADVMERRHLNHIPVMRADRIVGIITRSDFLSAVAGPLTGASGYSGSDNQLRRAVLAALAKTPWQPIGLNVRVRDGAVSLRGVIRGESAHRAAIVACENVPGVLRVDDRLCVQPSRPDPEDDYGGGDFVSLQMEPSTLDDEPL | failed
MSVSIAYLAVLLIWSTTPLGIVWSSESINPSLAVLLRMLIALVLGALVIKIRNIHIPWHKQAVKLYSFSALGIFGGMLCSYLSAAYLSSGIISLVFGLSPVISALLAKKILSEPNISGMRKFSMAISLIGLAVVCSDNFTLADDGIYGIIFILMAVFFFSLSGVLVKSVSLAIHPLATTVGALSVATPLFLVSWLLLDGTLPIETWQAKSLWATLYLGVFGSLIGFYAYFTVLQKLSASNVTLITLITPVIALTLGAVLNGEVINDKLILGAFMVLLGLSIYHFGHLLPRLKKKRARS | failed
MPTFLAALLTGLFNLCKSKLGYFVATAFVWLGINWGSYHFVISPLVEQLYTYVDSVGTAGGRFGELALRALGLLNFDRALTMIISAYVSRFAMLNGRLYLFKRGYGVAPPASPKHEPFIPPAG | failed
MNLKAMDAILEDCCDIVCSDYLPSAMIKSMCIVAERINNLNKAVSLFTSNPAKAVGIYDERGSIKENKKADLVLVDIDSEYPKVVNTIVNGKTVYKRELEHHHHHH | failed
